Results as given in PMC3203580.

Tests used:
rhSmad1 MH1 [1] = molecular target: T1, rhSmad1 MH1 (Homo sapiens, UniProt Q15797 1-143); test: competition
rhSmad1 MH1 [2] = molecular target: T1, rhSmad1 MH1; test: EMSA
rhSmad1 MH1 [3] = molecular target: T1, rhSmad1 MH1; test: competition; remark: listed apart in the source

T1 sequence (Q15797 1-143): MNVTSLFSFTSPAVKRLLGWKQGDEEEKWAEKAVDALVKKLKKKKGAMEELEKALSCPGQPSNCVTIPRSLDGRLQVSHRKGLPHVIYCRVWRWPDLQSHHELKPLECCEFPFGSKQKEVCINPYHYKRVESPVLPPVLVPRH

B1: GC-SBE Cmut (GGCGCC) (dsDNA)
DNA 1: ACAGCTCTGGCGCCAGATGGCCTGG
DNA 2: CCAGGCCATCTGGCGCCAGAGCTGT
Question: Does B1 bind (rhSmad1 MH1 [1])?
Answer: binds

B2: GC-SBE WT (dsDNA)
DNA 1: ACAGCTCTGGAGCCAGATGGCCTGG
DNA 2: CCAGGCCATCTGGCTCCAGAGCTGT
Question: Does B2 bind (rhSmad1 MH1 [2])?
Answer: binds

B3: GC-SBE mut (dsDNA)
DNA 1: ACAGCTCTAGATCCAGATGGCCTGG
DNA 2: CCAGGCCATCTGGATCTAGAGCTGT
Question: Does B3 bind (rhSmad1 MH1 [3])?
Answer: no binding
